For orientation: stoichiometry N means a count of units in the complex or per binding partner. Broadly, the Km is the concentration of substrate that gives half-maximal velocity. In general, Vmax refers to the rate approached at saturating substrate. Broadly, the kcat is the number of substrate molecules converted per active site and unit of time at saturation. In general, kcat/Km refers to the turnover number divided by the Michaelis constant.

The target of series [1] is T1, LdG6PD wt dimer (LdG6PD^Dimer) (Leishmania donovani, UniProt A2CIL3).
T1 construct: gene g6pdh
T1 sequence (A2CIL3 1-562): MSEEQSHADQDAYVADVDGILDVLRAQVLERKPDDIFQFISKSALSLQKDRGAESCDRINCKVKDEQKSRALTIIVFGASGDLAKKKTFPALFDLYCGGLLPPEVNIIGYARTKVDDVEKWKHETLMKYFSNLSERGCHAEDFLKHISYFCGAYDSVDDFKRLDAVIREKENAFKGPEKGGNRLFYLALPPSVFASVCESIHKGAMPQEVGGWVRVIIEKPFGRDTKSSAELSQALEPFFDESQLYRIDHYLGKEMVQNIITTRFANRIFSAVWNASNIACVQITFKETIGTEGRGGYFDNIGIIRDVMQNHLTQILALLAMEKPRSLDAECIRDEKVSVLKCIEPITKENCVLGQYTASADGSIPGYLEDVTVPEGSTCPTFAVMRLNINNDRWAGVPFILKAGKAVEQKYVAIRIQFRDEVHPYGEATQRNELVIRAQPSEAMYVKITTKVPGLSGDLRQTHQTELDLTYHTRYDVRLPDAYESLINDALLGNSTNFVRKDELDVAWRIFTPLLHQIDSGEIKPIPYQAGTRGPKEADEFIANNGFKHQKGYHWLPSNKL
As to the kind of experiment: dead-end inhibition, Lineweaver-Burk. As to conditions: 0-20 µM GlcN 6-P; competitive against G6P, not against NADP+; pH 7.5, 25 °C; oligomer fraction not told. The format is biochemical.

The target in series [2] is Leishmania donovani glucose 6-phosphate dehydrogenase truncation mutant lacking the first 59 N-terminal amino acids (Leishmania donovani). As to the kind of experiment: SEC. Background: Size exclusion chromatography separates by hydrodynamic size, large species first.
The target in series [3] is Leishmania major glucose 6-phosphate dehydrogenase wild type (Leishmania major). As to the kind of experiment: SEC; HiLoad 16/60 Superdex 200, buffer A (500 mM NaCl, 50 mM Tris, pH 7.8), native conditions; for LdG6PD wt also 12-300 uM enzyme, 5 mM DTT, 2 mM H2O2, substrates (100 uM G6P, NADP+), 0.1-1 M NaCl, pH 4.8-7.8, all without change of the profile; self-association: monomers to dimer and dimers to tetramer.

Series [4] deals with Leishmania donovani glucose 6-phosphate dehydrogenase C138S mutant (Leishmania donovani). As to the kind of experiment: SEC.
Series [5] deals with NC(=O)c1ccc[n+]([C@@H]2O[C@H](COP(=O)(O)OP(=O)(O)OC[C@H]3O[C@@H](n4cnc5c(N)ncnc54)[C@H](OP(=O)(O)O)[C@@H]3O)[C@@H](O)[C@H]2O)c1. As to the kind of experiment: purified protein. The format is biochemical, Leishmania donovani. The following applies: 800 µM G6P, 50 mM Tris pH 7.5, 3.3 mM MgCl2, 25 °C, crystal ligand given as NADP(H), redox state open.
The target in series [6] is Leishmania donovani glucose 6-phosphate dehydrogenase wild type (Leishmania donovani). As to the kind of experiment: SEC; HiLoad 16/60 Superdex 200, buffer A (500 mM NaCl, 50 mM Tris, pH 7.8), native conditions; for LdG6PD wt also 12-300 uM enzyme, 5 mM DTT, 2 mM H2O2, substrates (100 uM G6P, NADP+), 0.1-1 M NaCl, pH 4.8-7.8, all without change of the profile; self-association: monomers to dimer and dimers to tetramer.

The target of series [7] is T1, LdG6PD wt dimer (LdG6PD^Dimer). The series can be described thus: product inhibition, Lineweaver-Burk. The following applies: 0-80 µM NADPH; competitive against NADP+ (G6P 800 µM) and against G6P (NADP+ 200 µM); pH 7.5, 25 °C; oligomer fraction not told. Type of series: biochemical.
Substrate in series [8]: NC(=O)c1ccc[n+]([C@@H]2O[C@H](COP(=O)(O)OP(=O)(O)OC[C@H]3O[C@@H](n4cnc5c(N)ncnc54)[C@H](OP(=O)(O)O)[C@@H]3O)[C@@H](O)[C@H]2O)c1
The series can be described thus: purified protein. The following applies: 800 µM G6P.

Substrate in series [9]: NC(=O)c1ccc[n+]([C@@H]2O[C@H](COP(=O)(O)OP(=O)(O)OC[C@H]3O[C@@H](n4cnc5c(N)ncnc54)[C@H](OP(=O)(O)O)[C@@H]3O)[C@@H](O)[C@H]2O)c1
As to the kind of experiment: purified protein. The following applies: 800 µM G6P, 50 mM Tris pH 7.5, 3.3 mM MgCl2, 25 °C, tetramer fraction. The format is biochemical, Leishmania donovani.

“And” between values parts separate entries of the source, which are not always exact repeats. Equal values may be shown once.

Regarding `N[C@H]1C(O)O[C@H](COP(=O)(O)O)[C@@H](O)[C@@H]1O` (stereo partly shown) [GlcN 6-P, glucosamine 6-phosphate], the “dead-end inhibition, Lineweaver-Burk” value in series [1] is “GlcN 6-P shows a competitive inhibition pattern towards G6P”.

The molecule “Leishmania donovani glucose 6-phosphate dehydrogenase truncation mutant lacking the first 59 N-terminal amino acids (domain or fragment)” displayed a stoichiometry N in [2] of 2.

Take “Leishmania major glucose 6-phosphate dehydrogenase wild type (enzyme)”: the stoichiometry N in series [3] is 2 and 4.

Consider “Leishmania donovani glucose 6-phosphate dehydrogenase C138S mutant (enzyme)”, for which, in series [4], the stoichiometry N was 2 and 4.

On to LdG6PD^60–562 (Leishmania donovani), for which, in series [5], the Km is 14.3 ± 2.2 µM, the Vmax is 233 µmol/min/mg, the kcat was 234 ± 18.8 s⁻¹ and the kcat/Km worked out at 1.7e+07 ± 2.5e+06 M⁻¹ s⁻¹.

“Leishmania donovani glucose 6-phosphate dehydrogenase wild type (enzyme)”: in [6], the stoichiometry N was 4 and 2.

Consider `NC(=O)C1=CN([C@@H]2O[C@H](COP(=O)(O)OP(=O)(O)OC[C@H]3O[C@@H](n4cnc5c(N)ncnc54)[C@H](OP(=O)(O)O)[C@@H]3O)[C@@H](O)[C@H]2O)C=CC1` [NADPH], for which the “product inhibition, Lineweaver-Burk” value in series [7] is on record as “NADPH was found to be a competitive inhibitor with respect to NADP^+ in LdG6PD”.

B1: LdG6PD wt dimer (LdG6PD^Dimer) (Leishmania donovani) (protein)
chain: MSEEQSHADQDAYVADVDGILDVLRAQVLERKPDDIFQFISKSALSLQKDRGAESCDRINCKVKDEQKSRALTIIVFGASGDLAKKKTFPALFDLYCGGLLPPEVNIIGYARTKVDDVEKWKHETLMKYFSNLSERGCHAEDFLKHISYFCGAYDSVDDFKRLDAVIREKENAFKGPEKGGNRLFYLALPPSVFASVCESIHKGAMPQEVGGWVRVIIEKPFGRDTKSSAELSQALEPFFDESQLYRIDHYLGKEMVQNIITTRFANRIFSAVWNASNIACVQITFKETIGTEGRGGYFDNIGIIRDVMQNHLTQILALLAMEKPRSLDAECIRDEKVSVLKCIEPITKENCVLGQYTASADGSIPGYLEDVTVPEGSTCPTFAVMRLNINNDRWAGVPFILKAGKAVEQKYVAIRIQFRDEVHPYGEATQRNELVIRAQPSEAMYVKITTKVPGLSGDLRQTHQTELDLTYHTRYDVRLPDAYESLINDALLGNSTNFVRKDELDVAWRIFTPLLHQIDSGEIKPIPYQAGTRGPKEADEFIANNGFKHQKGYHWLPSNKL
Turning to B1, the Km in the series “purified protein [8]” (50 mM Tris pH 7.5, 3.3 mM MgCl2, 0.005% Tween, 1 mg/mL BSA, 25 °C, dimer fraction, crystal ligand given as NADP(H), redox state open) was determined as 15.9 ± 1.1 µM.

B2: LdG6PD wt tetramer (LdG6PD^Tetramer) (Leishmania donovani) (protein)
chain: MSEEQSHADQDAYVADVDGILDVLRAQVLERKPDDIFQFISKSALSLQKDRGAESCDRINCKVKDEQKSRALTIIVFGASGDLAKKKTFPALFDLYCGGLLPPEVNIIGYARTKVDDVEKWKHETLMKYFSNLSERGCHAEDFLKHISYFCGAYDSVDDFKRLDAVIREKENAFKGPEKGGNRLFYLALPPSVFASVCESIHKGAMPQEVGGWVRVIIEKPFGRDTKSSAELSQALEPFFDESQLYRIDHYLGKEMVQNIITTRFANRIFSAVWNASNIACVQITFKETIGTEGRGGYFDNIGIIRDVMQNHLTQILALLAMEKPRSLDAECIRDEKVSVLKCIEPITKENCVLGQYTASADGSIPGYLEDVTVPEGSTCPTFAVMRLNINNDRWAGVPFILKAGKAVEQKYVAIRIQFRDEVHPYGEATQRNELVIRAQPSEAMYVKITTKVPGLSGDLRQTHQTELDLTYHTRYDVRLPDAYESLINDALLGNSTNFVRKDELDVAWRIFTPLLHQIDSGEIKPIPYQAGTRGPKEADEFIANNGFKHQKGYHWLPSNKL
Take B2: in “purified protein [9]”, the Michaelis constant (Km) stood at 14.2 ± 0.9 µM, the maximal velocity (Vmax) is 185 µmol/min/mg, the catalytic constant (kcat) was found to be 204 ± 13.6 s⁻¹ and the catalytic efficiency (kcat/Km) was 1.49e+07 ± 3e+06 M⁻¹ s⁻¹.

B3: LmG6PD wt (Leishmania major) (protein)
chain: MSEEQSHADQDAYVADVDGILDVLRAEVLERKPDDVFQFISQSALSLQKDRGAESCDRINCKVTDEQKSRALTIIVFGASGDLAKKKTFPALFDLYCGGLLPPEVNVIGYARTKVDDAERWKRETLMTYFSNVPERACHAEDFLKHISYFCGSYDKVDDFKRLDAVIREKENAFKGPEKGGNRLFYLALPPSVFASVCESIHKGAMPQEVGGWARVIIEKPFGRDTKSSAELSRALEPFFDESQLYRIDHYLGKEMVQNIITTRFANRIFSAVWNSNNIACVQITFKETIGTEGRGGYFDGIGIIRDVMQNHLTQILALLAMEKPRSLDAECIRDEKVSVLKCIEPITKENCVLGQYTASADGSIPGYQEDVTVPEGSTCPTFAVMRLNINNDRWAGVPFILKAGKAVEQKYVAIRIQFKDEVHPYGEATQRNELVIRAQPSEAMYVKITTKVPGLSGDLRQTHQTELDLTYHTRYDVRLPDAYESLINDALLGNSTNFVRKDELDVAWRIFTPLLHQIDCGEIKPIPYQAGTRGPKEADEFITNNGFKHQKGYQWLPSNKL
On to B3, for which the Km in “purified protein [8]” (50 mM Tris pH 7.5, 3.3 mM MgCl2, 25 °C) is 11.4 ± 1.5 µM.

(Values after paper PMC9734377 (Communications Biology, 2022).)
